Source: patent US20240360223A1 (DRAGONFLY THERAPEUTICS, published 2024)
Substitutions are numbered along the chain they refer to. Names and notes keep the numbering of the source.

B1: hCOH-2-mAb (antibody, V domains shown)
VH: EVQLQESGPGLVKPSQTLSLTCTVSGDSITSGYWNWIRQHPGKGLEYIGYISYSGSTYYNPSLKSRVTISRDTSKNQYSLKLSSVTAADTAVYYCASPNYPFYAMDYWGQGTLVTVSS
VL: DIVLTQSPATLSLSPGERATLSCRASESVDNYGISFMNWFQQKPGQAPRLLIYAASNRATGIPARFSGSGSGTDFTLTISSLEPEDFAVYYCQQSKEVPWTFGGGTKVEIK
notes: Parental monoclonal antibody; also called Humanized mAb hCOH-2
B2: Hu9.1-73-mAb (antibody, V domains shown)
VH: EVQLVESGGGLVQPGGSLRLSCAASGLPMAGFYTSWVRQAPGKGLEWVGFIRDKANGYTTEYNPSVKGRFTISADTSKNTAYLQMNSLRAEDTAVYYCAQVRRALDYWGQGTLVTVSS
VL: DIQMTQSPSSLSASVGDRVTITCKSSQSLLYSSNQNNYLAWYQQKPGKAPKLLIYWAQHLDSGVPSRFSGSGSGTDFTLTISSLQPEDFATYYCQQYYTYPYTFGQGTKVEIK
notes: Parental monoclonal antibody; also called Genentech Hu9.1-73 parental mAb
B3: Ianalumab-F3′ (bispecific antibody, human IgG1, kappa)
chain: DIVLTQSPATLSLSPGERATLSCRASQFILPEYLSWYQQKPGQAPRLLIYGSSSRATGVPARFSGSGSGTDFTLTISSLEPEDFAVYYCQQFYSSPLTFGCGTKVEIKGGGGSGGGGSGGGGSGGGGSQVQLQQSGPGLVKPSQTLSLTCAISGDSVSSNSAAWGWIRQSPGRCLEWLGRIYYRSKWYNSYAVSVKSRITINPDTSKNQFSLQLNSVTPEDTAVYYCARYQWVPKIGVFDSWGQGTLVTVSSASDKTHTCPPCPAPELLGGPSVFLFPPKPKDTLMISRTPEVTCVVVDVSHEDPEVKFNWYVDGVEVHNAKTKPREEQYNSTYRVVSVLTVLHQDWLNGKEYKCKVSNKALPAPIEKTISKAKGQPREPRVYTLPPCRDELTKNQVSLTCLVKGFYPSDIAVEWESNGQPENNYKTTPPVLVSDGSFTLYSKLTVDKSRWQQGNVFSCSVMHEALHNHYTQKSLSLSPG
heavy: EVQLVESGGGLVKPGGSLRLSCAASGFTFSSYSMNWVRQAPGKGLEWVSSISSSSSYIYYADSVKGRFTISRDNAKNSLYLQMNSLRAEDTAVYYCARGAPIGAAAGWFDPWGQGTLVTVSSASTKGPSVFPLAPSSKSTSGGTAALGCLVKDYFPEPVTVSWNSGALTSGVHTFPAVLQSSGLYSLSSVVTVPSSSLGTQTYICNVNHKPSNTKVDKKVEPKSCDKTHTCPPCPAPELLGGPSVFLFPPKPKDTLMISRTPEVTCVVVDVSHEDPEVKFNWYVDGVEVHNAKTKPREEQYNSTYRVVSVLTVLHQDWLNGKEYKCKVSNKALPAPIEKTISKAKGQPREPQVCTLPPSRDELTENQVSLTCLVKGFYPSDIAVEWESNGQPENNYKTTPPVLDSDGSFFLYSWLTVDKSRWQQGNVFSCSVMHEALHNHYTQKSLSLSPG
light: DIQMTQSPSSVSASVGDRVTITCRASQGISSWLAWYQQKPGKAPKLLIYAASSLQSGVPSRFSGSGSGTDFTLTISSLQPEDFATYYCQQGVSFPRTFGGGTKVEIKRTVAAPSVFIFPPSDEQLKSGTASVVCLLNNFYPREAKVQWKVDNALQSGNSQESVTEQDSKDSTYSLSSTLTLSKADYEKHKVYACEVTHQGLSSPVTKSFNRGEC
notes: F3′ TriNKET: BAFF-R scFv-Fc (chain S), NKG2D Fab heavy (chain H) and light (chain L); no ADCC-enhancing mutations; also called ianalumab-F3′ TriNKET; Tool-F3′
B4: Ianalumab-2-Fab (bispecific antibody, human IgG1, kappa)
heavy 1: not shown
light 1: DIVLTQSPATLSLSPGERATLSCRASQFILPEYLSWYQQKPGQAPRLLIYGSSSRATGVPARFSGSGSGTDFTLTISSLEPEDFAVYYCQQFYSSPLTFGQGTKVEIKRTVAAPSVFIFPPSDEQLKSGTASVVCLLNNFYPREAKVQWKVDNALQSGNSQESVTEQDSKDSTYSLSSTLTLSKADYEKHKVYACEVTHQGLSSPVTKSFNRGEC
heavy 2: not shown
light 2: B3 light
notes: 2-Fab TriNKET: BAFF-R Fab arm and NKG2D (A49MI) Fab arm, F405L/K409R Fc
B5: Hu9.1-73-2-Fab (bispecific antibody, human IgG1, kappa)
heavy 1: not shown
light 1: DIQMTQSPSSLSASVGDRVTITCKSSQSLLYSSNQNNYLAWYQQKPGKAPKLLIYWAQHLDSGVPSRFSGSGSGTDFTLTISSLQPEDFATYYCQQYYTYPYTFGQGTKVEIKRTVAAPSVFIFPPSDEQLKSGTASVVCLLNNFYPREAKVQWKVDNALQSGNSQESVTEQDSKDSTYSLSSTLTLSKADYEKHKVYACEVTHQGLSSPVTKSFNRGEC
heavy 2: not shown
light 2: B3 light
notes: 2-Fab TriNKET
B6: hCOH-2-F3′ (bispecific antibody, human IgG1, kappa)
chain: DIVLTQSPATLSLSPGERATLSCRASESVDNYGISFMNWFQQKPGQAPRLLIYAASNRATGIPARFSGSGSGTDFTLTISSLEPEDFAVYYCQQSKEVPWTFGCGTKVEIKGGGGSGGGGSGGGGSGGGGSEVQLQESGPGLVKPSQTLSLTCTVSGDSITSGYWNWIRQHPGKCLEYIGYISYSGSTYYNPSLKSRVTISRDTSKNQYSLKLSSVTAADTAVYYCASPNYPFYAMDYWGQGTLVTVSSASDKTHTCPPCPAPELLGGPSVFLFPPKPKDTLMISRTPEVTCVVVDVSHEDPEVKFNWYVDGVEVHNAKTKPREEQYNSTYRVVSVLTVLHQDWLNGKEYKCKVSNKALPAPIEKTISKAKGQPREPRVYTLPPCRDELTKNQVSLTCLVKGFYPSDIAVEWESNGQPENNYKTTPPVLVSDGSFTLYSKLTVDKSRWQQGNVFSCSVMHEALHNHYTQKSLSLSPG
heavy: B3 heavy
light: B3 light
notes: F3′ TriNKET
B7: hCOH-2-2-Fab (bispecific antibody, human IgG1, kappa)
heavy 1: not shown
light 1: DIVLTQSPATLSLSPGERATLSCRASESVDNYGISFMNWFQQKPGQAPRLLIYAASNRATGIPARFSGSGSGTDFTLTISSLEPEDFAVYYCQQSKEVPWTFGGGTKVEIKRTVAAPSVFIFPPSDEQLKSGTASVVCLLNNFYPREAKVQWKVDNALQSGNSQESVTEQDSKDSTYSLSSTLTLSKADYEKHKVYACEVTHQGLSSPVTKSFNRGEC
heavy 2: not shown
light 2: B3 light
notes: 2-Fab TriNKET
B8: Hu9.1-73-F3′ (bispecific antibody, human IgG1, kappa)
chain: DIQMTQSPSSLSASVGDRVTITCKSSQSLLYSSNQNNYLAWYQQKPGKAPKLLIYWAQHLDSGVPSRFSGSGSGTDFTLTISSLQPEDFATYYCQQYYTYPYTFGCGTKVEIKGGGGSGGGGSGGGGSGGGGSEVQLVESGGGLVQPGGSLRLSCAASGLPMAGFYTSWVRQAPGKCLEWVGFIRDKANGYTTEYNPSVKGRFTISADTSKNTAYLQMNSLRAEDTAVYYCAQVRRALDYWGQGTLVTVSSASDKTHTCPPCPAPELLGGPSVFLFPPKPKDTLMISRTPEVTCVVVDVSHEDPEVKFNWYVDGVEVHNAKTKPREEQYNSTYRVVSVLTVLHQDWLNGKEYKCKVSNKALPAPIEKTISKAKGQPREPRVYTLPPCRDELTKNQVSLTCLVKGFYPSDIAVEWESNGQPENNYKTTPPVLVSDGSFTLYSKLTVDKSRWQQGNVFSCSVMHEALHNHYTQKSLSLSPG
heavy: B3 heavy
light: B3 light
notes: F3′ TriNKET; also called Hu9.1-73-F3′ TriNKET
B9: AB0681 (bispecific antibody, V domains shown)
VH: EVQLVQSGGGVVQPGRSLRLSCAASGEWFSSYGMHWVRQAPGKCLEWVAVIWYDGSNKYYGDSVKGRFTISRDNSKNTLYLQMNSLRDEDTAVYYCARRFTHLRGWIIEDYGMDVWGQGTTVTVSS
VL: not shown
notes: also called AB0681-001
B10: AB1080scFv (scFv, V domains shown)
VH: B9 VH with E27F, W28T, G55A, I107Y, M113L
VL: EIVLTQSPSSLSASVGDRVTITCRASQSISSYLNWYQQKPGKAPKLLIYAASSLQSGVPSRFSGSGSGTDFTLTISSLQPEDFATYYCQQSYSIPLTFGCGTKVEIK
notes: scFv on yeast; also called AB1080 (yeast clone)
B11: AB1084scFv (scFv, V domains shown)
VH: B9 VH with E27F, W28T, S31M, G55A, H102R, I107Y, M113L
VL: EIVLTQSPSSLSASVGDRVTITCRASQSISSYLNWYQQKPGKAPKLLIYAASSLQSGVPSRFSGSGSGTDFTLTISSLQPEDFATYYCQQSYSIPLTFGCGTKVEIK
notes: scFv on yeast; also called AB1084 (yeast clone)
B12: AB1081scFv (scFv, V domains shown)
VH: B9 VH with E27F, W28A, G55E, K76R, H102N, M113L
VL: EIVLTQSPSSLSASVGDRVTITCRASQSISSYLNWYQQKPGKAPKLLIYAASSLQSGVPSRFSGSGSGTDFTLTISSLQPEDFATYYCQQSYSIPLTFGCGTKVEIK
notes: scFv on yeast; also called AB1081 (yeast clone)

Each binder was assayed against T1, human BAFF-R expressed on cells (human, UniProt Q96RJ3 1-184) (assay: flow cytometry, RAJI cells).
T1 construct: Cell surface BAFF-R, endogenous on B cell lines and primary B cells or overexpressed on isogenic CHO cells; also called hBAFF-R; hBAFF-R-CHO
Experimental: The BAFF-R positive human B lymphoblastoid RAJI cell line was used to assess TriNKET binding to cell surface BAFF-R. Certain BAFF-R TriNKETs in the 2-Fab and F3′ formats, as described in the “exemplary multispecific binding proteins” subsection above, were diluted and incubated with Raji cells. Binding patterns of TriNKETs and parental monoclonal antibodies were detected using a fluorophore conjugated anti-human IgG secondary antibody. The cells were then incubated with a fluorophore conjugated anti-human IgG secondary antibody and were analyzed by flow cytometry. The mean fluorescence intensity (MFI) values were normalized to secondary antibody only controls to obtain fold over background (FOB) values.

| EC50 [nM] | Binder |
| --- | --- |
| 0.043 | B1 |
| 0.379 | B2 |
| 0.361 | B3 |
| 0.115 | B4 |
| 1.05 | B5 |
| 0.893 | B6 |
| 0.942 | B7 |
| 0.765 | B8 |

Each binder was assayed against T2, cynomolgus monkey BAFF-R expressed on cells (cynomolgus monkey) (assay: flow cytometry, cyno BAFF-R CHO cells).
T2 construct: whole, on cells; also called cBAFF-R; cynoBAFF-R

| EC50 [nM] | Binder |
| --- | --- |
| 5.6 | B9 |
| 2.9 | B3 |

What follows are binders tested against T1, human BAFF-R expressed on cells (assay: flow cytometry, human BAFF-R CHO cells).

| EC50 [nM] | Binder |
| --- | --- |
| 5.1 | B9 |
| 4.3 | B3 |

These binders were tested against T3, hBAFF-R-hFc-His fusion protein (human, UniProt Q96RJ3 1-78, biotinylated in the yeast display assays) (assay: yeast display flow cytometry after challenge: 100 pM hBAFFR-Fc biotin for 1hr at RT, then 1 mM nonbiotinylated hBAFFR-Fc (as printed on the sheet)).
T3 construct: the whole entry is named; also called hBAFFR-Fc; biotinylated hBAFF-R-hFc-His

| Iana (percent of events in the drawn gate named Iana) | Binder |
| --- | --- |
| 23.4 | B10 |
| 7.4 | B11 |
| 27.2 | B12 |
